Data as given in article PMC4622731 (mAbs, 2015).

How the values were obtained:
[1] = target: cynomolgus IL-1α (Macaca fascicularis) (UniProt P79340)
[2] = target: cynomolgus IL-1β (Macaca fascicularis) (UniProt P79182)
human IL-1α (human) [3] = target: human IL-1α (human) (UniProt P01583)
human IL-1β (human) [4] = target: human IL-1β (human) (UniProt P01584)
[5] = target: cynomolgus IL-1α (Macaca fascicularis) (UniProt P79340); remark: listed apart in the source
[6] = target: cynomolgus IL-1β (Macaca fascicularis) (UniProt P79182); remark: listed apart in the source
human IL-1α (human) [7] = target: human IL-1α (human) (UniProt P01583); remark: listed apart in the source
human IL-1β (human) [8] = target: human IL-1β (human) (UniProt P01584); remark: listed apart in the source
[9] = target: biotinylated human IL-1α (Homo sapiens) (UniProt P01583); experiment: ELISA; mAb or DVD-Ig (2 μg/mL) captured by anti-human Fc antibody coated on the plate; biotinylated human IL-1α or IL-1β titrated 1000 ng/mL to 0.597 pg/mL, 1 hour at 25°C; peroxidase-labeled streptavidin
[10] = target: biotinylated human IL-1β (Homo sapiens) (UniProt P01584); experiment: as above
[11] = target: cynomolgus IL-1α (Macaca fascicularis) (UniProt P79340); experiment: SPR; Biacore 3000; mAb or DVD-Ig captured by goat anti-human IgG Fc on a CM5 chip; IL-1 10-200 nM flowed at 25 μL/min; HBS-EP (10 mM HEPES pH 7.4, 150 mM NaCl, 3 mM EDTA, 0.005% P20), 25°C; 1:1 Langmuir global fit, KD = koff/kon
[12] = target: cynomolgus IL-1β (Macaca fascicularis) (UniProt P79182); experiment: as above
human IL-1α (human) [13] = target: human IL-1α (human) (UniProt P01583); experiment: as above
human IL-1β (human) [14] = target: human IL-1β (human) (UniProt P01584); experiment: as above
human IL-1β [15] = target: T1, human IL-1β (Homo sapiens, UniProt P01584); experiment: cell-based or functional assay
T1 sequence (P01584 whole entry): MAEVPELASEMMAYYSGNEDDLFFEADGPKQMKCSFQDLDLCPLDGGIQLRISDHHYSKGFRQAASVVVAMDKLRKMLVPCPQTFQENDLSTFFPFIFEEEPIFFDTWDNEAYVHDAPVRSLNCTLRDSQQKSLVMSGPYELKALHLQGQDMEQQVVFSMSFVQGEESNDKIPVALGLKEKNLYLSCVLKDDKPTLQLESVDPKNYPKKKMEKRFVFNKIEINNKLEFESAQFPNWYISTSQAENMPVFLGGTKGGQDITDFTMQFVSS

human IL-1β [16] = target: T1, human IL-1β; experiment: SPR; Biacore 3000; mAb or DVD-Ig captured by goat anti-human IgG Fc on a CM5 chip; IL-1 10-200 nM flowed at 25 μL/min; HBS-EP (10 mM HEPES pH 7.4, 150 mM NaCl, 3 mM EDTA, 0.005% P20), 25°C; 1:1 Langmuir global fit, KD = koff/kon; settings: both partners purified

Sequence of human IL-1β (human) (P01584 whole entry): as above
Sequence of cynomolgus IL-1α (Macaca fascicularis) (P79340 whole entry): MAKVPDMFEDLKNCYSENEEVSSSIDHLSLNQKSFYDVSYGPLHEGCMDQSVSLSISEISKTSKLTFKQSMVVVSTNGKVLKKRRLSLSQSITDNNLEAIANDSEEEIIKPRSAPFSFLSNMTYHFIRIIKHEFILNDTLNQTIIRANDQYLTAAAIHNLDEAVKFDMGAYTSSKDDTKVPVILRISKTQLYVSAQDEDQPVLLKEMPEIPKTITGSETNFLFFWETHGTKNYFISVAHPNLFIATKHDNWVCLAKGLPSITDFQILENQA
Sequence of human IL-1α (human) (P01583 whole entry): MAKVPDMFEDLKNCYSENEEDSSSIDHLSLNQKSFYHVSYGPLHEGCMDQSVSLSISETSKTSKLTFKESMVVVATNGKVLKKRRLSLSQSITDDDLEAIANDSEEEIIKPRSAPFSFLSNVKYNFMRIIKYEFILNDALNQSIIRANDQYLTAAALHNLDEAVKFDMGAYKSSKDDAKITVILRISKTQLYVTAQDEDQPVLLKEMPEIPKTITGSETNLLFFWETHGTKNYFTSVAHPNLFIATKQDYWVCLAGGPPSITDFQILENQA
Sequence of cynomolgus IL-1β (Macaca fascicularis) (P79182 whole entry): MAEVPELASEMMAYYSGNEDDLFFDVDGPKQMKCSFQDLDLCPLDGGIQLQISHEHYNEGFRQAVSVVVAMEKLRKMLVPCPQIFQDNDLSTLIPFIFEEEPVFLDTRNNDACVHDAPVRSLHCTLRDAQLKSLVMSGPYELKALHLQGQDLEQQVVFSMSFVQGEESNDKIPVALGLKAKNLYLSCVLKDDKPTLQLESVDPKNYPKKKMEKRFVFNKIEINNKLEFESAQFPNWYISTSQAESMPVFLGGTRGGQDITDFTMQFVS

ABT-981 (bispecific antibody)
Neutralization potency IC50, MRC-5 cell bioassay: IL-8 release on 3 pM cynomolgus IL-1α [1]: 955 pM | Neutralization potency IC50, MRC-5 cell bioassay: IL-8 release on 3 pM cynomolgus IL-1β [2]: 8.4 pM | Neutralization potency IC50, MRC-5 cell bioassay: IL-8 release on 3 pM human IL-1α (human IL-1α (human) [3]): 16.2 pM | Neutralization potency IC50, MRC-5 cell bioassay: IL-8 release on 3 pM human IL-1β (human IL-1β (human) [4]): 16 pM | ED50, Average: dose of ABT-981 inhibiting mouse IL-6 induced by 30 ng cynomolgus IL-1α in C57/BL6 mice [5]: 6.5 mg/kg | ED50, Expt #1: dose of ABT-981 inhibiting mouse IL-6 induced by 30 ng cynomolgus IL-1α in C57/BL6 mice [5]: 5.2 mg/kg | ED50, Expt #2: dose of ABT-981 inhibiting mouse IL-6 induced by 30 ng cynomolgus IL-1α in C57/BL6 mice [5]: 7.7 mg/kg | ED80, Average: dose of ABT-981 inhibiting mouse IL-6 induced by 30 ng cynomolgus IL-1α in C57/BL6 mice [5]: 18.2 mg/kg | ED80, Expt #1: dose of ABT-981 inhibiting mouse IL-6 induced by 30 ng cynomolgus IL-1α in C57/BL6 mice [5]: 16.1 mg/kg | ED80, Expt #2: dose of ABT-981 inhibiting mouse IL-6 induced by 30 ng cynomolgus IL-1α in C57/BL6 mice [5]: 20.2 mg/kg | ED50, Average: dose of ABT-981 inhibiting mouse IL-6 induced by 30 ng cynomolgus IL-1β in C57/BL6 mice [6]: 0.004 mg/kg | ED50, Expt #1: dose of ABT-981 inhibiting mouse IL-6 induced by 30 ng cynomolgus IL-1β in C57/BL6 mice [6]: 0.002 mg/kg | ED50, Expt #2: dose of ABT-981 inhibiting mouse IL-6 induced by 30 ng cynomolgus IL-1β in C57/BL6 mice [6]: 0.006 mg/kg | ED80, Average: dose of ABT-981 inhibiting mouse IL-6 induced by 30 ng cynomolgus IL-1β in C57/BL6 mice [6]: 0.094 mg/kg | ED80, Expt #1: dose of ABT-981 inhibiting mouse IL-6 induced by 30 ng cynomolgus IL-1β in C57/BL6 mice [6]: 0.098 mg/kg | ED80, Expt #2: dose of ABT-981 inhibiting mouse IL-6 induced by 30 ng cynomolgus IL-1β in C57/BL6 mice [6]: 0.11 mg/kg | ED50, Average: dose of ABT-981 inhibiting mouse IL-6 induced by 30 ng human IL-1α in C57/BL6 mice (human IL-1α (human) [7]): 0.005 mg/kg | ED50, Expt #1: dose of ABT-981 inhibiting mouse IL-6 induced by 30 ng human IL-1α in C57/BL6 mice (human IL-1α (human) [7]): 0.007 mg/kg | ED50, Expt #2: dose of ABT-981 inhibiting mouse IL-6 induced by 30 ng human IL-1α in C57/BL6 mice (human IL-1α (human) [7]): 0.002 mg/kg | ED80, Average: dose of ABT-981 inhibiting mouse IL-6 induced by 30 ng human IL-1α in C57/BL6 mice (human IL-1α (human) [7]): 0.104 mg/kg | ED80, Expt #1: dose of ABT-981 inhibiting mouse IL-6 induced by 30 ng human IL-1α in C57/BL6 mice (human IL-1α (human) [7]): 0.17 mg/kg | ED80, Expt #2: dose of ABT-981 inhibiting mouse IL-6 induced by 30 ng human IL-1α in C57/BL6 mice (human IL-1α (human) [7]): 0.04 mg/kg | ED50, Average: dose of ABT-981 inhibiting mouse IL-6 induced by 30 ng human IL-1β in C57/BL6 mice (human IL-1β (human) [8]): 0.016 mg/kg | ED50, Expt #1: dose of ABT-981 inhibiting mouse IL-6 induced by 30 ng human IL-1β in C57/BL6 mice (human IL-1β (human) [8]): 0.02 mg/kg | ED50, Expt #2: dose of ABT-981 inhibiting mouse IL-6 induced by 30 ng human IL-1β in C57/BL6 mice (human IL-1β (human) [8]): 0.012 mg/kg | ED80, Average: dose of ABT-981 inhibiting mouse IL-6 induced by 30 ng human IL-1β in C57/BL6 mice (human IL-1β (human) [8]): 0.28 mg/kg | ED80, Expt #1: dose of ABT-981 inhibiting mouse IL-6 induced by 30 ng human IL-1β in C57/BL6 mice (human IL-1β (human) [8]): 0.27 mg/kg | ED80, Expt #2: dose of ABT-981 inhibiting mouse IL-6 induced by 30 ng human IL-1β in C57/BL6 mice (human IL-1β (human) [8]): 0.32 mg/kg | EC50 [9]: 6.4 pM | EC50 [10]: 7.5 pM | Kd [11]: 411 pM | Kd [12]: 15.3 pM | Kd (human IL-1α (human) [13]): 7.6 pM | Kd (human IL-1β (human) [14]): 21 pM

B1: humanized SK48-E26 mAb (antibody, V domains shown)
VH: EVQLVESGGGVVQPGRSLRLSCSSSGFIFSSYDMSWVRQAPGKGLEWVAYISSGGGGTYYPDTVKGRFTISRDNSKNTLFLQMDSLRPEDTGVYFCARGGVTKGYFDVWGQGTPVTVSS
VL: DIQMTQSPSSLSASVGDRVTITCRASGNIHNYLTWYQQTPGKAPKLLIYNAKTLADGVPSRFSGSGSGTDYTFTISSLQPEDIATYYCQHFWSIPYTFGQGTKLQIT
Neutralization potency IC50, MRC-5 cell bioassay: IL-8 release on 3 pM human IL-1β (human IL-1β [15]): 400 pM | Kd (human IL-1β [16]): 242 pM
